One molecule from patent US9249224B2 (RINAT NEUROSCIENCE CORP., priority 2011, dated 2016) can be followed below.

The target in this assay is T1, human GHR (Homo sapiens, UniProt P10912).
T1 construct: his-tagged monomers of amino acids 31-235 of the extracellular domain of the human or cyno GHR
T1 sequence (P10912 49-253): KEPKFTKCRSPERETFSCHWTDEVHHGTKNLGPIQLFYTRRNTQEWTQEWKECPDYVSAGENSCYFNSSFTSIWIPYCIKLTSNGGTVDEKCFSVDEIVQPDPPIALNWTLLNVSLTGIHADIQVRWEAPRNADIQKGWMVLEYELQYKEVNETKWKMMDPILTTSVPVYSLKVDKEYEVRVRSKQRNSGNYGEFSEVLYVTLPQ
Kind of assay: Biacore kinetics and affinity, captured IgG, human GHR analyte, 25° C. The format is binding. As to conditions: IgG immobilized by capture. The method, then:
The affinity of a mouse anti-GHR antibody, Ab13, to human and cyno GHR was measured on a Biacore™ 2000 biosensor (GE Lifesciences™, Piscataway N.J.). An anti-mouse Ig sensor surface was prepared using a Biacore™ CM5 chip and reagents from the Biacore™ mouse antibody capture kit (GE Lifesciences™, Catalog# BR-1008-38), using instructions provided by the manufacturer.
The kinetics assay was run using a kinetic titration methodology as described in Karlsson et al., 2006, Anal. Biochem 349, 136-147. The mouse antibody, Ab13, was captured onto downstream flow cells at 0.5 μg/mL at a flow rate of 5 μL/min for 1 minute, 2 minutes and 4 minutes on flow cells 2, 3 and 4 respectively. Flow cell 1 was used as a reference surface. […]
The affinities of a humanized GHR antibody, SS1, and a chimeric molecule comprising the Fab of Ab13 fused to a human Fc domain (“Ab13-hFc”) to human and cyno GHR was measured on a Biacore™ 2000 biosensor (GE Lifesciences™ Piscataway N.J.). […]
The kinetics assay was run using a methodology with varying dissociation times as described in Katsamba et al., 2006, Anal. Biochem 352, 208-221. […] After the analyte injection, dissociation was monitored for 30 minutes (for the 400 nM GHR cycle) or 30 seconds (all other cycles) followed by regeneration of all flow cells with two 30-second injections of 75 mM phosphoric acid. […]

Several values for one entry are separate records, joined by “and”; a condition that tells them apart may be missing. Identical values can stand only once.

B1: SS1: humanized GHR antagonist antibody; VL SEQ ID NO: 7, VH SEQ ID NO: 8; hIgG2Δa heavy chain SEQ ID NO: 134, light chain SEQ ID NO: 135 (antibody)
heavy: EVQLVESGGGLVKPGGSLRLSCAASGFTFSDAWMDWVRQAPGKGLEWVAEIRSKANYHATYYAESVKGRFTISRDDSKNTLYLQMNSLKTEDTAVYYCTLIRDYWGQGTLVTVSSASTKGPSVFPLAPCSRSTSESTAALGCLVKDYFPEPVTVSWNSGALTSGVHTFPAVLQSSGLYSLSSVVTVPSSNFGTQTYTCNVDHKPSNTKVDKTVERKCCVECPPCPAPPVAGPSVFLFPPKPKDTLMISRTPEVTCVVVDVSHEDPEVQFNWYVDGVEVHNAKTKPREEQFNSTFRVVSVLTVVHQDWLNGKEYKCKVSNKGLPSSIEKTISKTKGQPREPQVYTLPPSREEMTKNQVSLTCLVKGFYPSDIAVEWESNGQPENNYKTTPPMLDSDGSFFLYSKLTVDKSRWQQGNVFSCSVMHEALHNHYTQKSLSLSPGK
light: EIVLTQSPGTLSLSPGERATLSCTATSSVSSSYLNWYQQKPGQAPRLLIYSTSNLASGIPDRFSGSGSGTDFTLTISRLEPEDFAVYYCHQYHRSTPTFGGGTKVEIKRTVAAPSVFIFPPSDEQLKSGTASVVCLLNNFYPREAKVQWKVDNALQSGNSQESVTEQDSKDSTYSLSSTLTLSKADYEKHKVYACEVTHQGLSSPVTKSFNRGEC
modifications: Humanized and/or affinity matured antibody sequence
For the molecule B1, the “ka” value is 77000 M⁻¹ s⁻¹ and 74000 M⁻¹ s⁻¹; the “kd” value is 6.4e-05 s⁻¹ and 7.7e-05 s⁻¹.
